Experimental data published in IntAct's records for PubMed 25068414.

B1: Protein ECT2 (Homo sapiens), Q9H8V3 (parent)
chain: MAENSVLTSTTGRTSLADSSIFDSKVTEISKENLLIGSTSYVEEEMPQIETRVILVQEAGKQEELIKALKTIKIMEVPVIKIKESCPGKSDEKLIKSVINMDIKVGFVKMESVEEFEGLDSPEFENVFVVTDFQDSVFNDLYKADCRVIGPPVVLNCSQKGEPLPFSCRPLYCTSMMNLVLCFTGFRKKEELVRLVTLVHHMGGVIRKDFNSKVTHLVANCTQGEKFRVAVSLGTPIMKPEWIYKAWERRNEQDFYAAVDDFRNEFKVPPFQDCILSFLGFSDEEKTNMEEMTEMQGGKYLPLGDERCTHLVVEENIVKDLPFEPSKKLYVVKQEWFWGSIQMDARAGETMYLYEKANTPELKKSVSMLSLNTPNSNRKRRRLKETLAQLSRETDVSPFPPRKRPSAEHSLSIGSLLDISNTPESSINYGDTPKSCTKSSKSSTPVPSKQSARWQVAKELYQTESNYVNILATIIQLFQVPLEEEGQRGGPILAPEEIKTIFGSIPDIFDVHTKIKDDLEDLIVNWDESKSIGDIFLKYSKDLVKTYPPFVNFFEMSKETIIKCEKQKPRFHAFLKINQAKPECGRQSLVELLIRPVQRLPSVALLLNDLKKHTADENPDKSTLEKAIGSLKEVMTHINEDKRKTEAQKQIFDVVYEVDGCPANLLSSHRSLVQRVETISLGEHPCDRGEQVTLFLFNDCLEIARKRHKVIGTFRSPHGQTRPPASLKHIHLMPLSQIKKVLDIRETEDCHNAFALLVRPPTEQANVLLSFQMTSDELPKENWLKMLCRHVANTICKADAENLIYTADPESFEVNTKDMDSTLSRASRAIKKTSKKVTRAFSFSKTPKRALRRALMTSHGSVEGRSPSSNDKHVMSRLSSTSSLAGIPSPSLVSLPSFFERRSHTLSRSTTHLI
partner: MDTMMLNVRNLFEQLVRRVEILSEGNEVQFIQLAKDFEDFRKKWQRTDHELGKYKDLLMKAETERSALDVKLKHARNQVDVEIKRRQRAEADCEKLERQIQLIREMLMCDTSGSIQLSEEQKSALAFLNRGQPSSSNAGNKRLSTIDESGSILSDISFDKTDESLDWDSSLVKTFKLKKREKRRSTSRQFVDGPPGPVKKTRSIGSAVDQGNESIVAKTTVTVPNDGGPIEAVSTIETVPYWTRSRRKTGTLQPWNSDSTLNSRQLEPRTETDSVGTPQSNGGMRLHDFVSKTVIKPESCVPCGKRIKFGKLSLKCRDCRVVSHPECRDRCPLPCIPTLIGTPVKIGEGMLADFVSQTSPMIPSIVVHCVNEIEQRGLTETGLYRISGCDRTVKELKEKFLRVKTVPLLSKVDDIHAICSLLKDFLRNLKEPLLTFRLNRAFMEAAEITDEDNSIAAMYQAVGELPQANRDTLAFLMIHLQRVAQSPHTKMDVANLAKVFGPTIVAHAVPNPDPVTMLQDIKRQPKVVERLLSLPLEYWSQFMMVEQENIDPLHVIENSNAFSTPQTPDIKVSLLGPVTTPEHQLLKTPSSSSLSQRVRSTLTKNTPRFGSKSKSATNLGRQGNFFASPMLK
B2: Rac GTPase-activating protein 1 (Homo sapiens), Q9H0H5 (parent)
chain: B1 partner
partner: B1 chain

Variants of: B1
Conditions: with rgap1_human RACGAP1, Q9H0H5

| effect of a mutation on the interaction | Variant |
| --- | --- |
| disrupting interaction | V153A;L195M |

Variants of: B1
Conditions: with rgap1_human RACGAP1, Q9H0H5
Remark: another data set of the same source

| effect of a mutation on the interaction | Variant |
| --- | --- |
| decreasing interaction | P163E |

Variants of: B1
Conditions: with rgap1_human RACGAP1, Q9H0H5
Remark: another data set of the same source

| effect of a mutation on the interaction | Variant |
| --- | --- |
| disrupting interaction | L195M |

Variants of: B1
Conditions: with rgap1_human RACGAP1, Q9H0H5
Remark: another data set of the same source

| effect of a mutation on the interaction | Variant |
| --- | --- |
| decreasing interaction | V153A |

Variants of: B2
Conditions: with ect2_human ECT2, Q9H8V3

| effect of a mutation on the interaction | Variant |
| --- | --- |
| decreasing interaction | W167A |
